Measurements from patent US20240392004A1 (IMMUNOWAKE, published 2024).
Substitutions are numbered along the chain they refer to. Numbers in names are those of the source.

Assays:
[1] = molecular target: T1, human PD-1 on cells (HEK-PD-1 reporter cells; activated PBMC) (human, UniProt Q15116 25-288); experiment: cell-based or functional assay
[2] = molecular target: T2, IFN-γ receptor (IFNGR1 and IFNGR2) (UniProt P15260 18-489; P38484 22-337, limits assumed); experiment: cell-based or functional assay
T2 sequence (looked up) 1: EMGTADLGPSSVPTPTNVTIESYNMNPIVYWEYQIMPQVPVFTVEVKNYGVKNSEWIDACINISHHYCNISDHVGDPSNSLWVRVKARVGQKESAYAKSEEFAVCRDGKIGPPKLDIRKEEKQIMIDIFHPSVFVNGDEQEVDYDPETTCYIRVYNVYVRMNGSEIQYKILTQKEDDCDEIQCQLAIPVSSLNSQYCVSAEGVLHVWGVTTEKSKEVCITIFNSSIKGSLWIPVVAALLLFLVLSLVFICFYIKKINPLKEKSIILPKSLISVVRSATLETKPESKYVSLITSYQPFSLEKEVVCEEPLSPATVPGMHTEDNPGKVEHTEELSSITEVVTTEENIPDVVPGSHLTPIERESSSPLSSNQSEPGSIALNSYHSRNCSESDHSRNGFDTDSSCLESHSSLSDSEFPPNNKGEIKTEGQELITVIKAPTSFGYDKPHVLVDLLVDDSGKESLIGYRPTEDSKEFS
T2 sequence (looked up) 2: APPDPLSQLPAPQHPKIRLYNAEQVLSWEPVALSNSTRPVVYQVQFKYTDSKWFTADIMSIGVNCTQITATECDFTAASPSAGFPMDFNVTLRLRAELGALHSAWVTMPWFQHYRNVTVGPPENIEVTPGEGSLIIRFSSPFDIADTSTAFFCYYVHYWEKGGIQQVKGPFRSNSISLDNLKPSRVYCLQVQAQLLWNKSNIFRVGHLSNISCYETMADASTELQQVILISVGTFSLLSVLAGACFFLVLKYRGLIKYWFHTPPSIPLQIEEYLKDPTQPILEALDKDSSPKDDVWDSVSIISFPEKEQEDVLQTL

[3] = molecular target: human IL-12 receptor complex (IL-12Rβ1 and IL-12Rβ2) (human, UniProt P42701 24-662; Q99665 24-862); experiment: cell-based or functional assay
Chain of human IL-12 receptor complex (IL-12Rβ1 and IL-12Rβ2) (Q99665 24-862, chain 2 of 2, other chains not shown): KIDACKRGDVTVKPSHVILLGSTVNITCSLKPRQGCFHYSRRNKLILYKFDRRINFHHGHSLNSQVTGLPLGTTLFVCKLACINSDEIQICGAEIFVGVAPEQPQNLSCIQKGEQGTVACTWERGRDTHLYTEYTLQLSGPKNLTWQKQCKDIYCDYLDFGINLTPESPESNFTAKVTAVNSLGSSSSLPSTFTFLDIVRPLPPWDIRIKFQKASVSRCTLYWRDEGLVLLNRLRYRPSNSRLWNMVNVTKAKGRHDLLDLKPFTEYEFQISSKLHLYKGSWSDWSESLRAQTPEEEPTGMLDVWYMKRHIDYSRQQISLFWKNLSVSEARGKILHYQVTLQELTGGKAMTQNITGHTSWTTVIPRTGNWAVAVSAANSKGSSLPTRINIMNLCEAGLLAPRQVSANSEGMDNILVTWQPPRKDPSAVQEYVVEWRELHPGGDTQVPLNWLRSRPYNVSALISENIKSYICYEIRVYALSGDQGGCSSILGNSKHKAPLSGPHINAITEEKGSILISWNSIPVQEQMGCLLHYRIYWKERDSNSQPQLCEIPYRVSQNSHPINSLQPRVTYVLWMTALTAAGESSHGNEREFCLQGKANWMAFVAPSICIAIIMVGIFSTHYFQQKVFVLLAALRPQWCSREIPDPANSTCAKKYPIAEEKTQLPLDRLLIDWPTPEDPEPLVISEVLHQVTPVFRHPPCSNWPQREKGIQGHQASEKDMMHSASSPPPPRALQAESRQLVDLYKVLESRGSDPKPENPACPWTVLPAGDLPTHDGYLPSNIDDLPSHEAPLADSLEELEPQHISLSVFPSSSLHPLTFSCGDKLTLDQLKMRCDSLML

[4] = molecular target: T1, human PD-1 on cells (HEK-PD-1 reporter …); experiment: cell-based or functional assay; remark: listed apart in the source
[5] = molecular target: T3, human PD-1 (human, UniProt Q15116 25-167, limits assumed); experiment: Biacore and cell-based assays, calibrated by wildtype nivolumab binding affinity
T3 construct: also called hPD-1
T3 sequence (Q15116 25-167 limits assumed): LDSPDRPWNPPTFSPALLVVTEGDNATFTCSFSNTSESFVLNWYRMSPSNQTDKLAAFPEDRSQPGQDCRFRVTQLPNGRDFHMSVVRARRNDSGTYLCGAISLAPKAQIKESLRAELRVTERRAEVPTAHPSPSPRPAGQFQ

T1 sequence (Q15116 25-288): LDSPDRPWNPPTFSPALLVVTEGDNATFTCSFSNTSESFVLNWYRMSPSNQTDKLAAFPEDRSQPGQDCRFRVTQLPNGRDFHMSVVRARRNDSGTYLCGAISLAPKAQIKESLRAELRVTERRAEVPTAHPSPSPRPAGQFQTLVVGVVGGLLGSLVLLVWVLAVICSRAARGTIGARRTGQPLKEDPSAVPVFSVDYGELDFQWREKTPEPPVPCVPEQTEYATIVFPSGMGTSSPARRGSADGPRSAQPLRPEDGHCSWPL

B1: PD-L1(I54Q/Y56F/E58M/R113T/M115L/S117A/G119K)-Fc/IL-12(E59A/F60A) (IL-12 at C-terminus of Fc) (Fc fusion)
chain 1: FTVTVPKDLYVVEYGSNMTIECKFPVEKQLDLAALQVFWMMEDKNIIQFVHGEEDLKVQHSSYRQRARLLKDQLSLGNAALQITDVKLQDAGVYTCLIAYKGADYKRITVKVNAPYNKINQRILVVDPVTSEHELTCQAEGYPKAEVIWTSSDHQVLSGKTTTTNSKREEKLFNVTSTLRINTTTNEIFYCTFRRLDPEENHTAELVIPELPLAHPPNERGSGDKTHTCPPCPAPEKKGGPSVFLFPPKPKDTLMISRTPEVTCVVVDVSHEDPEVKFNWYVDGVEVHNAKTKPREEQYNSTYRVVSVLTVLHQDWLNGKEYKCKVSNKALPAPIEKTISKAKGQPREPQVYVLPPSREEMTKNQVSLLCLVKGFYPSDIAVEWESNGQPENRYMTWPPVLDSDGSFFLYSKLTVDKSRWQQGNVFSCSVMHEALHNHYTQKSLSLSPGK
chain 2: FTVTVPKDLYVVEYGSNMTIECKFPVEKQLDLAALQVFWMMEDKNIIQFVHGEEDLKVQHSSYRQRARLLKDQLSLGNAALQITDVKLQDAGVYTCLIAYKGADYKRITVKVNAPYNKINQRILVVDPVTSEHELTCQAEGYPKAEVIWTSSDHQVLSGKTTTTNSKREEKLFNVTSTLRINTTTNEIFYCTFRRLDPEENHTAELVIPELPLAHPPNERGSGDKTHTCPPCPAPEDEGGPSVFLFPPKPKDTLMISRTPEVTCVVVDVSHEDPEVKFNWYVDGVEVHNAKTKPREEQYNSTYRVVSVLTVLHQDWLNGKEYKCKVSNKALPAPIEKTISKAKGQPREPQVYVYPPSREEMTKNQVSLTCLVKGFYPSDIAVEWESNGQPENNYKTTPPVLDEDGSFALVSKLTVDKSRWQQGNVFSCSVMHEALHNHYTQKSLSLSPGKGGGGSGGGGSGGGGSIWELKKDVYVVELDWYPDAPGEMVVLTCDTPEEDGITWTLDQSSEVLGSGKTLTIQVKAAGDAGQYTCHKGGEVLSHSLLLLHKKEDGIWSTDILKDQKEPKNKTFLRCEAKNYSGRFTCWWLTTISTDLTFSVKSSRGSSDPQGVTCGAATLSAERVRGDNKEYEYSVECQEDSACPAAEESLPIEVMVDAVHKLKYENYTSSFFIRDIIKPDPPKNLQLKPLKNSRQVEVSWEYPDTWSTPHSYFSLTFCVQVQGKSKREKKDRVFTDKTSATVICRKNASISVRAQDRYYSSSWSEWASVPCSGGGGSGGGGSGGGGSGGGGSGRNLPVATPDPGMFPCLHHSQNLLRAVSNMLQKARQTLEFYPCTSEEIDHEDITKDKTSTVEACLPLELTKNESCLNSRETSFITNGSCLASRKTSFMMALCLSSIYEDLKMYQVEFKTMNAKLLMDPKRQIFLDQNMLAVIDELMQALNFNSETVPQKSSLEEPDFYKTKIKLCILLHAFRIRAVTIDRVMSYLNAS
[1]
  Biological activity of IL-12, HEK-PD-1-IL-12 reporter assay, % of rIL-12: 189%

B2: IL-12(F60A)/PD-L1(I54Q/Y56F/E58M/R113T/M115L/S117A/G119K)-Fc (IL-12 at hinge) (Fc fusion)
chain 1: B1 chain 1
chain 2: FTVTVPKDLYVVEYGSNMTIECKFPVEKQLDLAALQVFWMMEDKNIIQFVHGEEDLKVQHSSYRQRARLLKDQLSLGNAALQITDVKLQDAGVYTCLIAYKGADYKRITVKVNAPYNKINQRILVVDPVTSEHELTCQAEGYPKAEVIWTSSDHQVLSGKTTTTNSKREEKLFNVTSTLRINTTTNEIFYCTFRRLDPEENHTAELVIPELPLAHPPNERGSGIWELKKDVYVVELDWYPDAPGEMVVLTCDTPEEDGITWTLDQSSEVLGSGKTLTIQVKEAGDAGQYTCHKGGEVLSHSLLLLHKKEDGIWSTDILKDQKEPKNKTFLRCEAKNYSGRFTCWWLTTISTDLTFSVKSSRGSSDPQGVTCGAATLSAERVRGDNKEYEYSVECQEDSACPAAEESLPIEVMVDAVHKLKYENYTSSFFIRDIIKPDPPKNLQLKPLKNSRQVEVSWEYPDTWSTPHSYFSLTFCVQVQGKSKREKKDRVFTDKTSATVICRKNASISVRAQDRYYSSSWSEWASVPCSGGGGSGGGGSGGGGSGGGGSGRNLPVATPDPGMFPCLHHSQNLLRAVSNMLQKARQTLEFYPCTSEEIDHEDITKDKTSTVEACLPLELTKNESCLNSRETSFITNGSCLASRKTSFMMALCLSSIYEDLKMYQVEFKTMNAKLLMDPKRQIFLDQNMLAVIDELMQALNFNSETVPQKSSLEEPDFYKTKIKLCILLHAFRIRAVTIDRVMSYLNASDKTHTCPPCPAPEDEGGPSVFLFPPKPKDTLMISRTPEVTCVVVDVSHEDPEVKFNWYVDGVEVHNAKTKPREEQYNSTYRVVSVLTVLHQDWLNGKEYKCKVSNKALPAPIEKTISKAKGQPREPQVYVYPPSREEMTKNQVSLTCLVKGFYPSDIAVEWESNGQPENNYKTTPPVLDEDGSFALVSKLTVDKSRWQQGNVFSCSVMHEALHNHYTQKSLSLSPGK
[1]
  Biological activity of IL-12, HEK-PD-1-IL-12 reporter assay, % of rIL-12: 234%

B3: PD-L1(I54Q/Y56F/E58M/R113T/M115L/S117A/G119K)-Fc/IL-12(F60A) (IL-12 at C-terminus of Fc) (Fc fusion)
chain 1: B1 chain 1
chain 2: B1 chain 2 with A524E
[1]
  Biological activity of IL-12, HEK-PD-1-IL-12 reporter assay, % of rIL-12: 234%

B4: IL-12(E59A/F60A)/PD-L1(I54Q/Y56F/E58M/R113T/M115L/S117A/G119K)-Fc (IL-12 at hinge) (Fc fusion)
chain 1: B1 chain 1
chain 2: B2 chain 2 with E282A
[1]
  Biological activity of IL-12, HEK-PD-1-IL-12 reporter assay, % of rIL-12: 126%

B5: IL-12(E59A/F60A)/IFN-γ(A23V/A23V)/PD-L2(mut2)-Fc (Fc fusion)
chain 1: LFTVTVPKELYIIEHGSNVTLECNFDTGSHVNLGAITAVLQKVENDTSPHRERATLLEEQLPLGKASFHIPQVQVRDEGQYQCIIIYGVAWDYKYLTLKVKASYRKINTHILKVPETDEVELTCQATGYPLAEVSWPNVSVPANTSHSRTPEGLYQVTSVLRLKPPPGRNFSCVFWNTHVRELTLASIDLQSQMEPRTHPTGGGGSGGGIWELKKDVYVVELDWYPDAPGEMVVLTCDTPEEDGITWTLDQSSEVLGSGKTLTIQVKAAGDAGQYTCHKGGEVLSHSLLLLHKKEDGIWSTDILKDQKEPKNKTFLRCEAKNYSGRFTCWWLTTISTDLTFSVKSSRGSSDPQGVTCGAATLSAERVRGDNKEYEYSVECQEDSACPAAEESLPIEVMVDAVHKLKYENYTSSFFIRDIIKPDPPKNLQLKPLKNSRQVEVSWEYPDTWSTPHSYFSLTFCVQVQGKSKREKKDRVFTDKTSATVICRKNASISVRAQDRYYSSSWSEWASVPCSGGGGSGGGSGGGGSRNLPVATPDPGMFPCLHHSQNLLRAVSNMLQKARQTLEFYPCTSEEIDHEDITKDKTSTVEACLPLELTKNESCLNSRETSFITNGSCLASRKTSFMMALCLSSIYEDLKMYQVEFKTMNAKLLMDPKRQIFLDQNMLAVIDELMQALNFNSETVPQKSSLEEPDFYKTKIKLCILLHAFRIRAVTIDRVMSYLNASGGGGSGGGDKTHTCPPCPAPEDEGGPSVFLFPPKPKDTLMISRTPEVTCVVVDVSHEDPEVKFNWYVDGVEVHNAKTKPREEQYNSTYRVVSVLTVLHQDWLNGKEYKCKVSNKALPAPIEKTISKAKGQPREPQVYVYPPSREEMTKNQVSLTCLVKGFYPSDIAVEWESNGQPENNYKTTPPVLDEDGSFALVSKLTVDKSRWQQGNVFSCSVMHEALHNHYTQKSLSLSPGK
chain 2: LFTVTVPKELYIIEHGSNVTLECNFDTGSHVNLGAITAVLQKVENDTSPHRERATLLEEQLPLGKASFHIPQVQVRDEGQYQCIIIYGVAWDYKYLTLKVKASYRKINTHILKVPETDEVELTCQATGYPLAEVSWPNVSVPANTSHSRTPEGLYQVTSVLRLKPPPGRNFSCVFWNTHVRELTLASIDLQSQMEPRTHPTGGGSGQDPYVKEAENLKKYFNAGHSDVVDNGTLFLGILKNWKEESDRKIMQSQIVSFYFKLFKNFKDDQSIQKSVETIKEDMNVKFFNSNKKKRDDFEKLTNYSVTDLNVQRKAIHELIQVMAELSPAAKTGKRKRSQMLFRGGGGSGGGGSGGGGSGGGGSQDPYVKEAENLKKYFNAGHSDVVDNGTLFLGILKNWKEESDRKIMQSQIVSFYFKLFKNFKDDQSIQKSVETIKEDMNVKFFNSNKKKRDDFEKLTNYSVTDLNVQRKAIHELIQVMAELSPAAKTGKRKRSQMLFRGGGGGSGGGDKTHTCPPCPAPEKKGGPSVFLFPPKPKDTLMISRTPEVTCVVVDVSHEDPEVKFNWYVDGVEVHNAKTKPREEQYNSTYRVVSVLTVLHQDWLNGKEYKCKVSNKALPAPIEKTISKAKGQPREPQVYVLPPSREEMTKNQVSLLCLVKGFYPSDIAVEWESNGQPENRYMTWPPVLDSDGSFFLYSKLTVDKSRWQQGNVFSCSVMHEALHNHYTQKSLSLSPGK
[2]
  IFN-γ signal transduction, HEK-IFN-γ: < 0.1%
[3]
  IL-12 signal transduction, HEK-IL-12: < 0.2%
[4]
  IFN-γ signal transduction, HEK-IFN-γ-PD-1: 35%
  IL-12 signal transduction, HEK-IL-12-PD-1: 45%

B6: IL-12(E59A/F60A)/IFN-γ(A23V/A23V)/PD-L2(mut4)-Fc (Fc fusion)
chain 1: B5 chain 1 with T37V, Q41L
chain 2: B5 chain 2 with T37V, Q41L
[2]
  IFN-γ signal transduction, HEK-IFN-γ: < 0.1%
[3]
  IL-12 signal transduction, HEK-IL-12: < 0.2%
[4]
  IFN-γ signal transduction, HEK-IFN-γ-PD-1: 40%
  IL-12 signal transduction, HEK-IL-12-PD-1: 49%

B7: anti-PD-1 antibody HC-CDR3(D100G) (antibody, V domains shown)
VH: QVQLVESGGGVVQPGRSLRLDCKASGITFSNSGMHWVRQAPGKGLEWVAVIWYDGSKRYYADSVKGRFTISRDNSKNTLFLQMNSLRAEDTAVYYCATNGDYWGQGTLVTVSS
VL: EIVLTQSPATLSLSPGERATLSCRASQSVSSYLAWYQQKPGQAPRLLIYDASNRATGIPARFSGSGSGTDFTLTISSLEPEDFAVYYCQQSSNWPRTFGQGTKVEIKR
notes: constant parts as m82
[5]
  Kd: 130 nM

B8: anti-PD-1 antibody HC-CDR3(D100N) (antibody, V domains shown)
VH: B7 VH with G100N
VL: B7 VL
notes: constant parts as m82
[5]
  Kd: 25 nM

B9: anti-PD-1 antibody HC-CDR3(D100R) (antibody, V domains shown)
VH: B7 VH with G100R
VL: B7 VL
notes: constant parts as m82
[5]
  Kd: 910 nM
